This is an account of results in US7109170B2, “Region of factor IXa protease domain that interacts with factor VIIIa and methods therefor” (Saint Louis University, priority 1999, dated 2006).

Format in all cases: biochemical
In experiment [1] the target is T1, factor VIIIa (Homo sapiens, UniProt P00451).
T1 construct: purchased Dr. Leon Hoyer (American Red Cross, Rockville, Md.)
T1 sequence (P00451 20-759 limits assumed): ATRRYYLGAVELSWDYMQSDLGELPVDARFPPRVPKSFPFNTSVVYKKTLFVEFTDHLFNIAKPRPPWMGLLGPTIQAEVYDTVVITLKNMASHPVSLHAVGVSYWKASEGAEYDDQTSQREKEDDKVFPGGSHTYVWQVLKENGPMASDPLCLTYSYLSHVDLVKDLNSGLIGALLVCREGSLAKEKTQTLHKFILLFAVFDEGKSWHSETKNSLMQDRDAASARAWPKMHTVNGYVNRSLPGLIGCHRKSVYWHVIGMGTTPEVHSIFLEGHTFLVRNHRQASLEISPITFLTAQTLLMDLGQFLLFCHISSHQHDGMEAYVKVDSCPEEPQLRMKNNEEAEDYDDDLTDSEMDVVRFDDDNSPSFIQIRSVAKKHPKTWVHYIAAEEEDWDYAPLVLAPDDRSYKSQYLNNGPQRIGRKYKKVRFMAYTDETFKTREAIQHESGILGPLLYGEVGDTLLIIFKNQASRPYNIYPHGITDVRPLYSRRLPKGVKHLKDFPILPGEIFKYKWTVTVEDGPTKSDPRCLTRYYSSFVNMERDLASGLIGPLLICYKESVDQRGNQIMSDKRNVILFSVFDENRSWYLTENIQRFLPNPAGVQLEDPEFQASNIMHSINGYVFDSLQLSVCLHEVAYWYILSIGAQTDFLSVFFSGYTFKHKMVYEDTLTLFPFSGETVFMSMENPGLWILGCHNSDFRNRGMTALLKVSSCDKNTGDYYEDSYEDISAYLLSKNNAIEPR
T1 sequence (P00451 1668-2351 limits assumed): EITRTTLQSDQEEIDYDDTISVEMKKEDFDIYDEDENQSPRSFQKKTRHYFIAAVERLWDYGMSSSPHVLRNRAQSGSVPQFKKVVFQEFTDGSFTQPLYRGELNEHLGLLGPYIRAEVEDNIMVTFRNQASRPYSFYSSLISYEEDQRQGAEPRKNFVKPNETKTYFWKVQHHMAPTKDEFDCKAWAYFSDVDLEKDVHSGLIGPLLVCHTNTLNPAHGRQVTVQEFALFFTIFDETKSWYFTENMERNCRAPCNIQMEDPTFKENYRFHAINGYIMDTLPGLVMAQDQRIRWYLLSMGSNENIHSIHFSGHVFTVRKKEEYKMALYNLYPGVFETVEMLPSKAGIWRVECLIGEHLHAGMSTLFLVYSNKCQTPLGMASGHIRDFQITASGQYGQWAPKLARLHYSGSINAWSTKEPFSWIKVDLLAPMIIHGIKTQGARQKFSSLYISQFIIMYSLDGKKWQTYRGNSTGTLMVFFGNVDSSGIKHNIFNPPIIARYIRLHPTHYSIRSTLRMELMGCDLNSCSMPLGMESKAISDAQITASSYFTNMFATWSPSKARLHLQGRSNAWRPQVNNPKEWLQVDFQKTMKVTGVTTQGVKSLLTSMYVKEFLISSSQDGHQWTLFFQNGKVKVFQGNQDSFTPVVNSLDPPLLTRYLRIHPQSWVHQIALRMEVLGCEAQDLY
Kind of experiment: inhibition of Xa generation by active site-blocked (DEGR) IXa proteins, absence of phospholipid (Kd,app for VIIIa). The method, then: (§1) Apparent Kds of factor VIIIa binding to various active site-blocked factor IXa proteins were determined from inhibition experiments as detailed in Mathur et al., 1997, supra. […] Reactions were carried out for 2 min and the rates of factor X activation were measured as outlined above.
(§2) Various DEGR-ck-inhibited factor IXa proteins were prepared for these experiments as follows. IXNP, IXWT, and each mutant factor IX at 200 μg/ml was activated by factor XIa (2 μg/ml) for 90 min. in TBS, pH 7.4 (0.05 M Tris, 0.15 M NaCl, pH 7.4) containing 5 mM Ca^2+.
(§3) Enzymol. 74, 481–508 given below:
(§4) [formula] where y is the rate of Xa formation in the presence of a given concentration of DEGR-IXa protein represented by x, a is the maximum rate of Xa formation in the absence of DEGR-IXa, and s is the slope factor. Each point was weighted equally and the data were fitted to Equation 1 using the nonlinear regression analysis program obtained from Erithacus Software (GraFit). […] To obtain the Kd,app values for the interaction of DEGR-IXa proteins with factor VIIIa, the following equation was used, as described by Cheng and Prusoff, 1973, Biochem. Pharmacol. 22, 3099–3108 and further discussed by Craig, 1993, Trends Pharmacol. Sci. 6, 68–71.

Experiment [2] deals with T1, factor VIIIa. The experiment in a line: inhibition of Xa generation by active site-blocked (DEGR) IXa proteins, presence of phospholipid (Kd,app for VIIIa). The method, then: as §1, §2, §3, §4
Experiment [3] concerns Factor IX deficient plasma. Kind of experiment: coagulant activity of XIa-activated IXa proteins.

As to “IXaV331A: activated factor IX mutant V331A”, the “fold-reduction in affinity for factor VIIIa compared with DEGR-IXaWT” value is 7 fold in the experiment with factor VIIIa [1] (absence of phospholipid) and 11 fold with factor VIIIa [2] (presence of phospholipid). For the same substance, the Kd with factor VIIIa [1] (active site-blocked (DEGR) IXa proteins, no phospholipid, read-out: Kd, app for interaction with factor VIIIa, PL-minus system) amounted to 1350 ± 310 nM; in the experiment with factor VIIIa [2] (active site-blocked (DEGR) IXa proteins, 10 μM phospholipid, read-out: Kd, app for interaction with factor VIIIa, PL-plus system) it was 0.61 ± 0.08 nM. Besides, the “coagulant activity as compared to IXaNP” value in experiment [3] was approximately 6%.
